Data taken from patent publication US20160090427A1 (SAMSUNG ELECTRONICS, published 2016).
One block for each binder: values may come before it.

Legend:
[1] = target: VEGF (R&D systems) (UniProt P15692-4 27-191, limits assumed); assay: SPR (Biacore T100), CM5 chip, VEGF; format unclear in the text
Protocol: An examination on whether the 8 anti-c-Met/anti-VEGF bispecific antibodies prepared in Example 2 maintains binding affinity to VEGF was conducted using Biacore T100(GE). VEGF (R&D systems) immobilized on the surface of CM5 chip (#BR-1005-30, GE) by amino coupling according to the manufacturer's instructions. About 90˜120 RU of the anti-c-Met/anti-VEGF bispecific antibody was captured, and […] was injected thereto at various concentrations. Then, a solution containing 1M NaCl and 5 mM NaOH was injected thereto to regenerate the surface. The obtained data were fitted using BlAevaluation software (GE Healthcare, Biacore T100 evaluation software), to measure the binding affinity to VEGF.

[2] = target: T1, human c-Met/Fc fusion protein (R&D Systems) (human, UniProt P08581 25-932); assay: SPR (Biacore T100), bispecific captured by human Fab binder on CM5 chip, c-Met-Fc injected
T1 construct: Bought reagent; also called c-Met-Fc (#358-MT/CF, R&D Systems); human c-Met/Fc protein; not shown: Fc part of the bought fusion protein
T1 sequence (P08581 25-932 limits assumed): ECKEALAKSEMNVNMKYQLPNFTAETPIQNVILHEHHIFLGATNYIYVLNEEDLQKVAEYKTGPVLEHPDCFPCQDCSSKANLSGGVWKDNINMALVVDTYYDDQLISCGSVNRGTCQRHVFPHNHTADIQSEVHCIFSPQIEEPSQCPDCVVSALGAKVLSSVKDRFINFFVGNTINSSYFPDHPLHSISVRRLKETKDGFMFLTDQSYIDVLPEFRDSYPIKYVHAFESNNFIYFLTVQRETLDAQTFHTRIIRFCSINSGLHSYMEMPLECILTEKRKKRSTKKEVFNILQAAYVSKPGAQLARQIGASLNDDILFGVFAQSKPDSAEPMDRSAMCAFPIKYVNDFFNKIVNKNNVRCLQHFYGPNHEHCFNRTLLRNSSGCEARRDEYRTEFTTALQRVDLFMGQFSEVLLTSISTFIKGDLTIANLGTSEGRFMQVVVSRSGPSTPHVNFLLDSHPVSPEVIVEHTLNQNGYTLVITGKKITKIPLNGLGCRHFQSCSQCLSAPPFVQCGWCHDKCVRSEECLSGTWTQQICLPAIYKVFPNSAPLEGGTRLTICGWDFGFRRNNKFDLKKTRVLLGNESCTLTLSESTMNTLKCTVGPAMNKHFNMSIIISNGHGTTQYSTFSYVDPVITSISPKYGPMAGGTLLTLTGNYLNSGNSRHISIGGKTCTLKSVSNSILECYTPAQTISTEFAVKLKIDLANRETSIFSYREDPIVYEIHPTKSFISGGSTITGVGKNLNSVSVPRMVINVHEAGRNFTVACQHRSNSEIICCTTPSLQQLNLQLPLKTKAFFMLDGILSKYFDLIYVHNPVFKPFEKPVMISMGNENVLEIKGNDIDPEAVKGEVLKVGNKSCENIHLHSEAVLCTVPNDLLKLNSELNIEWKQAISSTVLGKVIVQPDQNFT
Protocol: An examination on whether the anti-c-Met/anti-VEGF bispecific antibody maintains binding affinity to c-Met was conducted using Biacore T100(GE). A human Fab binding agent (GE Healthcare) was immobilized onto a CM5 chip (#BR-1005-30, GE) according to the manufacturer's instructions. About 90˜120 RU of the anti-c-Met/anti-VEGF bispecific antibody was captured, and c-Met-Fc (#358-MT/CF, R&D Systems) was injected thereto at various concentrations. Then, 10 mM Glycine-HCl (pH 2.1) solution was injected thereto to regenerate the surface. The obtained data were fitted using BlAevaluation software (GE Healthcare, Biacore T100 evaluation software), to measure the binding affinity to c-Met.

Sequence of VEGF (R&D systems) (P15692 other isoform, or with tags, fused parts or gaps limits assumed): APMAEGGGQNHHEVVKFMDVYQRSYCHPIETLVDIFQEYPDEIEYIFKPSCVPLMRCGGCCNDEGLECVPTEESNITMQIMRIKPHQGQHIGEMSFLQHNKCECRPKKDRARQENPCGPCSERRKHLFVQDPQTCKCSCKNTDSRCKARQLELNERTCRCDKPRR

B1: MV-15 anti-c-Met/anti-VEGF bispecific antibody (bispecific antibody, human IgG2, kappa)
heavy: EVQLVESGGGLVQPGGSLRLSCAASGFTFTDYYMSWVRQAPGKGLEWLGFIRNKANGYTTEYSASVKGRFTISRDNSKNTLYLQMNSLRAEDTAVYYCARDNWFAYWGQGTLVTVSSASTKGPSVFPLAPCSRSTSESTAALGCLVKDYFPEPVTVSWNSGALTSGVHTFPAVLQSSGLYSLSSVVTVPSSNFGTQTYTCNVDHKPSNTKVDKTVERKCCVECPPCPAPPVAGPSVFLFPPKPKDTLMISRTPEVTCVVVDVSHEDPEVQFNWYVDGVEVHNAKTKPREEQFNSTFRVVSVLTVVHQDWLNGKEYKCKVSNKGLPAPIEKTISKTKGQPREPQVYTLPPSREEMTKNQVSLTCLVKGFYPSDIAVEWESNGQPENNYKTTPPMLDSDGSFFLYSKLTVDKSRWQQGNVFSCSVMHEALHNHYTQKSLSLSPGKGGGGSGGGGSEVQLLESGGGLVQPGGSLRLSCAASGFTFSGYAMSWVRQAPGKGLEWVSSIYSSSGSKYYADSVKGRFTISRDNSKNTLYLQMNSLRAEDTAVYYCARASSTCTRTWCSYDDAMDVWGQGTLVTVSSGGGGSGGGGSGGGGSQSVLTQPPSASGTPGQRVTISCTGSSSNIGNNAVTWYQQLPGTAPKLLIYDDSHRPSGVPDRFSGSKSGTSASLAISGLRSEDEADYYCGTWDYSLSGYVFGGGTKLTVLG
light: DIQMTQSPSSLSASVGDRVTITCKSSQSLLASGNQNNYLAWYQQKPGKAPKMLIIWASTRVSGVPSRFSGSGSGTDFTLTISSLQPEDFATYYCQQSYSRPYTFGQGTKVEIKRTVAAPSVFIFPPSDEQLKSGTASVVCLLNNFYPREAKVQWKVDNALQSGNSQESVTEQDSKDSTYSLSSTLTLSKADYEKHKVYACEVTHQGLSSPVTKSFNRGEC
notes: This is an inference
Kd [1]: 6.83 nM
Kd [2]: 0.1 nM

B2: MV-16 anti-c-Met/anti-VEGF bispecific antibody (bispecific antibody, human IgG2, kappa)
heavy: EVQLVESGGGLVQPGGSLRLSCAASGFTFTDYYMSWVRQAPGKGLEWLGFIRNKANGYTTEYSASVKGRFTISRDNSKNTLYLQMNSLRAEDTAVYYCARDNWFAYWGQGTLVTVSSASTKGPSVFPLAPCSRSTSESTAALGCLVKDYFPEPVTVSWNSGALTSGVHTFPAVLQSSGLYSLSSVVTVPSSNFGTQTYTCNVDHKPSNTKVDKTVERKCCVECPPCPAPPVAGPSVFLFPPKPKDTLMISRTPEVTCVVVDVSHEDPEVQFNWYVDGVEVHNAKTKPREEQFNSTFRVVSVLTVVHQDWLNGKEYKCKVSNKGLPAPIEKTISKTKGQPREPQVYTLPPSREEMTKNQVSLTCLVKGFYPSDIAVEWESNGQPENNYKTTPPMLDSDGSFFLYSKLTVDKSRWQQGNVFSCSVMHEALHNHYTQKSLSLSPGKGGGGSGGGGSEVQLLESGGGLVQTGGSLRLSCAASGFTFSDYAMSWVRQAPGKGLEWVSSIYPGSGSKYYADSVKGRFAISRDNSKNTLYLQMNSLRAEDTAVYYCARDAWFRGHNVFDYWGQGTLVTVSSGGGGSGGGGSGGGGSQSVLTQPPSASGTPGQRVTISCTGSSSNIGSNNVTWYQQLPGTAPKLLIYSDSHRPSGVPDRFSGSKSGTSASLAISGLQSEDEADYYCGSWDYSLSAYVFGGGTKLTVLG
light: DIQMTQSPSSLSASVGDRVTITCKSSQSLLASGNQNNYLAWYQQKPGKAPKMLIIWASTRVSGVPSRFSGSGSGTDFTLTISSLQPEDFATYYCQQSYSRPYTFGQGTKVEIKRTVAAPSVFIFPPSDEQLKSGTASVVCLLNNFYPREAKVQWKVDNALQSGNSQESVTEQDSKDSTYSLSSTLTLSKADYEKHKVYACEVTHQGLSSPVTKSFNRGEC
Kd [1]: 14.8 nM
Kd [2]: 0.21 nM

Now those with a lower Kd [1], led by results:

Kd [1]: 5.76 nM
Kd [2]: 0.09 nM
B3: MV-17 anti-c-Met/anti-VEGF bispecific antibody (bispecific antibody, human IgG2, kappa)
heavy: EVQLVESGGGLVQPGGSLRLSCAASGFTFTDYYMSWVRQAPGKGLEWLGFIRNKANGYTTEYSASVKGRFTISRDNSKNTLYLQMNSLRAEDTAVYYCARDNWFAYWGQGTLVTVSSASTKGPSVFPLAPCSRSTSESTAALGCLVKDYFPEPVTVSWNSGALTSGVHTFPAVLQSSGLYSLSSVVTVPSSNFGTQTYTCNVDHKPSNTKVDKTVERKCCVECPPCPAPPVAGPSVFLFPPKPKDTLMISRTPEVTCVVVDVSHEDPEVQFNWYVDGVEVHNAKTKPREEQFNSTFRVVSVLTVVHQDWLNGKEYKCKVSNKGLPAPIEKTISKTKGQPREPQVYTLPPSREEMTKNQVSLTCLVKGFYPSDIAVEWESNGQPENNYKTTPPMLDSDGSFFLYSKLTVDKSRWQQGNVFSCSVMHEALHNHYTQKSLSLSPGKGGGGSGGGGSEVQLLESGGGLVQPGGSLRLSCAASGFTFSNYDMSWVRQAPGKGLEWVSGIYPNGGSKYYADSVKGRFTISRDNSKNTLYLQMNSLRAEDTAVYYCARALRQCQRYWCSYADGMDVWGQGTLVTVSSGGGGSGGGGSGGGGSQSVLTQPPSASGTPGQRVTISCTGSSSNIGSNYVSWYQQLPGTAPKLLIYADSQRPSGVPDRFSGSKSGTSASLAISGLRSEDEADYYCGTWDYSLSGYVLGGGTKLTVLG
light: DIQMTQSPSSLSASVGDRVTITCKSSQSLLASGNQNNYLAWYQQKPGKAPKMLIIWASTRVSGVPSRFSGSGSGTDFTLTISSLQPEDFATYYCQQSYSRPYTFGQGTKVEIKRTVAAPSVFIFPPSDEQLKSGTASVVCLLNNFYPREAKVQWKVDNALQSGNSQESVTEQDSKDSTYSLSSTLTLSKADYEKHKVYACEVTHQGLSSPVTKSFNRGEC

Kd [1]: 4.23 nM
Kd [2]: 0.05 nM
B4: MV-18 anti-c-Met/anti-VEGF bispecific antibody (bispecific antibody, human IgG2, kappa)
heavy: EVQLVESGGGLVQPGGSLRLSCAASGFTFTDYYMSWVRQAPGKGLEWLGFIRNKANGYTTEYSASVKGRFTISRDNSKNTLYLQMNSLRAEDTAVYYCARDNWFAYWGQGTLVTVSSASTKGPSVFPLAPCSRSTSESTAALGCLVKDYFPEPVTVSWNSGALTSGVHTFPAVLQSSGLYSLSSVVTVPSSNFGTQTYTCNVDHKPSNTKVDKTVERKCCVECPPCPAPPVAGPSVFLFPPKPKDTLMISRTPEVTCVVVDVSHEDPEVQFNWYVDGVEVHNAKTKPREEQFNSTFRVVSVLTVVHQDWLNGKEYKCKVSNKGLPAPIEKTISKTKGQPREPQVYTLPPSREEMTKNQVSLTCLVKGFYPSDIAVEWESNGQPENNYKTTPPMLDSDGSFFLYSKLTVDKSRWQQGNVFSCSVMHEALHNHYTQKSLSLSPGKGGGGSGGGGSEVQLLESGGGLVQPGGSLRLSCAASGFTFSDYYMSWVRQAPGKGLEWVSAIYSGGGSIYYADSVKGRFTISRDNSKNTLYLQMNSLRAEDTAVYYCARDVQWNKAPRFDYWGQGTLVTVSSGGGGSGGGGSGGGGSQSVLTQPPSASGAPGQRVTISCSGSSSNIGSNDVSWYQQLPGTAPKLLIYADSNRPSGVPDRFSGSKSGTSASLAISGLRSEDEADYYCGSWDYSLSGYVFGGGTKLTVLG
light: DIQMTQSPSSLSASVGDRVTITCKSSQSLLASGNQNNYLAWYQQKPGKAPKMLIIWASTRVSGVPSRFSGSGSGTDFTLTISSLQPEDFATYYCQQSYSRPYTFGQGTKVEIKRTVAAPSVFIFPPSDEQLKSGTASVVCLLNNFYPREAKVQWKVDNALQSGNSQESVTEQDSKDSTYSLSSTLTLSKADYEKHKVYACEVTHQGLSSPVTKSFNRGEC

Kd [1]: 1 nM
Kd [2]: 0.3 nM
B5: MV-19 anti-c-Met/anti-VEGF bispecific antibody (bispecific antibody, human IgG2, kappa)
heavy: EVQLVESGGGLVQPGGSLRLSCAASGFTFTDYYMSWVRQAPGKGLEWLGFIRNKANGYTTEYSASVKGRFTISRDNSKNTLYLQMNSLRAEDTAVYYCARDNWFAYWGQGTLVTVSSASTKGPSVFPLAPCSRSTSESTAALGCLVKDYFPEPVTVSWNSGALTSGVHTFPAVLQSSGLYSLSSVVTVPSSNFGTQTYTCNVDHKPSNTKVDKTVERKCCVECPPCPAPPVAGPSVFLFPPKPKDTLMISRTPEVTCVVVDVSHEDPEVQFNWYVDGVEVHNAKTKPREEQFNSTFRVVSVLTVVHQDWLNGKEYKCKVSNKGLPAPIEKTISKTKGQPREPQVYTLPPSREEMTKNQVSLTCLVKGFYPSDIAVEWESNGQPENNYKTTPPMLDSDGSFFLYSKLTVDKSRWQQGNVFSCSVMHEALHNHYTQKSLSLSPGKGGGGSGGGGSEVQLLESGGGLVQPGGSLRLSCAASGFTFSSYSMSWVRQAPGKGLEWVSGISHGGGNKYYADSVKGRFTISRDNSKNTLYLQMNSLRAEDTAVYYCARDLRANNDTGFDYWGQGTLVTVSSGGGGSGGGGSGGGGTQSVLTQPPSSSGTPGQRVTISCTGSSSNIGSNAVTWYQQLPGTAPKLLIYDDNHRPSGVPDRFSGSKSGTSASLAISGLRSEDEADYYCGAWDYSLNAYVFGGGTKLTVLG
light: DIQMTQSPSSLSASVGDRVTITCKSSQSLLASGNQNNYLAWYQQKPGKAPKMLIIWASTRVSGVPSRFSGSGSGTDFTLTISSLQPEDFATYYCQQSYSRPYTFGQGTKVEIKRTVAAPSVFIFPPSDEQLKSGTASVVCLLNNFYPREAKVQWKVDNALQSGNSQESVTEQDSKDSTYSLSSTLTLSKADYEKHKVYACEVTHQGLSSPVTKSFNRGEC
